Experiment [1] concerns the target biotinylated GFP1-9. The experiment in a line: mRNA display pull-down with biotinylated GFP1-9, qPCR; corrected with the display efficiency. Background: Real-time PCR tracks product formation cycle by cycle.
Experiment [2] concerns the target biotinylated GFP1-9. The experiment in a line: mRNA display pull-down: 0.42 µM Display molecule with 1 µM biotinylated GFP1-9, streptavidin beads, TEV elution, qPCR.
Experiment [3] deals with biotinylated GFP1-9. Nature of the experiment: cell-based or functional assay.
Experiment [4] concerns the target GFP10-Link12-FRB-His×6. The experiment in a line: cell-based or functional assay.
The target in experiment [5] is anti-ubiquitin antibody (Mouse IgG1 monoclonal antibody; clone name FK2). Nature of the experiment: mRNA display pull-down on anti-ubiquitin antibody (FK2) magnetic beads, qPCR; 1:1 mixture of the two display molecules.
Experiment [6] has the same target. Nature of the experiment: mRNA display pull-down on anti-ubiquitin antibody (FK2) magnetic beads, qPCR; 1:1 mixture; corrected with the display efficiency.
For experiment [7] the target is unchanged. Nature of the experiment: mRNA display pull-down on anti-ubiquitin antibody (FK2) magnetic beads, qPCR; corrected with the display efficiency.
For experiment [8] the target is unchanged. Nature of the experiment: mRNA display pull-down on anti-ubiquitin antibody (FK2) magnetic beads, heat elution, qPCR.
For experiment [9] the target is unchanged. Nature of the experiment: mRNA display pull-down on anti-ubiquitin antibody (FK2) magnetic beads, qPCR.

Sequence of GFP10-11 fusion peptide (peptide; modification not given; biotinylated at the Avi tag (co-expression with BirA)) (chain, as listed by the source): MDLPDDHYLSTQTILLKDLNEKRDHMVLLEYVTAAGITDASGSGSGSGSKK
Sequence of His×6-FKBP12-Link12-GFP11 (chain): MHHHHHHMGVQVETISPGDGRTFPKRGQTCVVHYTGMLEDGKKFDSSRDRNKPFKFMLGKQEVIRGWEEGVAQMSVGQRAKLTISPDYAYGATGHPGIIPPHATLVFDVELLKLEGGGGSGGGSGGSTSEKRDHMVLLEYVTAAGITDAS
Sequence of GFP10-Link12-FRB-His×6 (chain, as listed by the source limits assumed): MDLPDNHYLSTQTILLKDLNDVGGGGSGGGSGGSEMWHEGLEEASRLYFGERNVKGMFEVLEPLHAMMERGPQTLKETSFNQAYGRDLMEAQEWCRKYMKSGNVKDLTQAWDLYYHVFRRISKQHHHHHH
Sequence of GFP10-Link12-FRB-His×6 (chain): as the sequence (chain, as listed by the source limits assumed) above

For the substance “GFP10-11 fusion peptide (peptide; modification not given; biotinylated at the Avi tag (co-expression with BirA))”, the Recovery rate (%) in experiment [1] came out at 23.4%. Moreover, in [2], the Apparent recovery rate (%) came to 13.1% and the Recovered nucleic acid amount (molecules) worked out at 1.31e+11 molecules.
In experiment [3], GFP10-Link12-FRB-His×6 yielded a Recovered nucleic acid amount (molecules) of compound nk06 by pull-down with biotinylated GFP1-9; Condition 4, FKBP12-GFP11 absent of 2.24e+08 molecules and a Recovery rate (%) of compound nk06 by pull-down with biotinylated GFP1-9; Condition 4, FKBP12-GFP11 absent of 0.055%.
Regarding His×6-FKBP12-Link12-GFP11, in [4], the Recovered nucleic acid amount (molecules) of compound nk06 (rapamycin-nucleic acid) by pull-down with biotinylated GFP1-9; Condition 1, all three proteins at 1 µM is 3.5e+10 molecules and the Recovery rate (%) of compound nk06 (rapamycin-nucleic acid) by pull-down with biotinylated GFP1-9; Condition 1, all three proteins at 1 µM is 8.62%. In experiment [3], this substance had a Recovered nucleic acid amount (molecules) of compound nk06 by pull-down with biotinylated GFP1-9; Condition 3, GFP10-FRB absent of 8.21e+08 molecules and a Recovery rate (%) of compound nk06 by pull-down with biotinylated GFP1-9; Condition 3, GFP10-FRB absent of 0.202%.
Take splitUb (N) + splitUb (C): in experiment [5], the Apparent recovery rate (%) is 0.194% and the Recovered nucleic acid amount (molecules) turned out to be 7.16e+09 molecules. Also, the Recovery rate (%) in experiment [6] was determined as 0.344%.
For the substance splitUb(C) (peptide), the Recovery rate (%) in experiment [7] came to 1.01%. In addition, in experiment [8], the Apparent recovery rate (%) was found to be 0.571% and the Recovered nucleic acid amount (molecules) was 1.16e+10 molecules.
With splitUb(N-C), the Recovery rate (%) in [7] came out at 16.1%. For the same substance, in [8], the Apparent recovery rate (%) was found to be 12.3% and the Recovered nucleic acid amount (molecules) was 6.69e+10 molecules. For the same substance, in experiment [9], the fold higher recovery rate than the other controls was > 16 times.

Values taken from US20240069033A1, “METHOD FOR SCREENING FOR CANDIDATE MOLECULE CAPABLE OF FORMING COMPLEX IN CONJUNCTION WITH PLURALITY OF TARGET MOLECULES” (Chugai Seiyaku Kabushiki Kaisha, priority 2020, published 2024).
